Measured values published in the supplement of paper PMC12764529.
± gives the half width of the 95% confidence interval.

Tests used:
[1] = folding stability dG unfold from trypsin proteolysis; higher = more stable
Method in brief: (§1)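 Bayesian fitting of sequencing counts gave K50 for each design. Unfolding free energy followed by setting this against a sequence-predicted unfolded-state K50 and a shared folded-state K50, either per protease or with trypsin and chymotrypsin combined. The designs, under 80 residues and lacking cysteine, were digested in a PA-tagged cDNA display format at 11 threefold-diluted protease concentrations and without protease, and only those with AlphaFold2 dimer inter-PAE above 15 were kept.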

[2] = folding stability dG unfold (combined trypsin and chymotrypsin); higher = more stable
Method in brief: as §1

[3] = folding stability dG unfold from chymotrypsin proteolysis; higher = more stable
Method in brief: as §1

Sequence	folding stability dG unfold [1]	folding stability dG unfold [2]	folding stability dG unfold [3]
SAGSLEKVTESSTSSDKVEVTTTTLTPLSNPSVPVQYVKTTTTTTLIDPATGKTLSTTTTTTTTPLPAASAG [r5_300_JUSTAS]	-0.0274 ± 0.047 kcal/mol	0.053 ± 0.19 kcal/mol	0.0998 ± 0.19 kcal/mol
SAGGMTITIEKEGDTLKVTITIRDAATNETYTVEATLTRKEDGSLTLEIRFEDGSTKTINLKDIKLVSAGGS [r16_154_TrROS_Hall]	3 ± 0.21 kcal/mol	3.76 ± 0.47 kcal/mol	4.11 ± 0.41 kcal/mol
SAGGSAGGKPEVKITLVIEVETEEELKALAEELAALLGAEVEVRVERREDGRLLVTVTITVPAESAGGSAGG [r6_719_TrROS_Hall]	3.28 ± 0.14 kcal/mol	2.97 ± 0.096 kcal/mol	2.77 ± 0.12 kcal/mol
SMKVTLDGKGSVTTMPAEQLEVLIKELKEKGYKVKILSEEPDPNSDTVNYTIEITPPKPEKEEFENEELKSA [r9_448_JUSTAS]	0.948 ± 0.039 kcal/mol	1.59 ± 0.12 kcal/mol	1.94 ± 0.12 kcal/mol
SAGGSAGGSAMKYTVTVTLPNGTTLTLDVGTETEEEAVSETKKLIAEKYPDVKGAKIDLTKESAGGSAGGSA [r18_434_JUSTAS]	1.88 ± 0.11 kcal/mol	2.33 ± 0.13 kcal/mol	2.52 ± 0.038 kcal/mol
SAGATTTTTTTNPADDTTVTTTTTTTGNTSTVTSTSTSGSTSTLTTTTVTFTSPTTTTTTTTTTPVPSSAGG [r19_292_JUSTAS]	0.679 ± 0.03 kcal/mol	0.264 ± 0.074 kcal/mol	-0.45 ± 0.22 kcal/mol
SAGGSAGGSASMSPEELAEKYREEYEKKYGIPAVEVKVEVIPEEEKYVITIKLPGSEITVIVSAGGSAGGSA [r18_145_JUSTAS]	3.62 ± 0.26 kcal/mol	3.11 ± 0.13 kcal/mol	2.74 ± 0.089 kcal/mol
SAGGSAGGSAGATISPDGYKIVVTNADGEKVTLTFDSLEEAKAALEALLPPGARVFIEKVSAGGSAGGSAGG [r11_983_TrROS_Hall]	0.529 ± 0.035 kcal/mol	1.61 ± 0.031 kcal/mol	2.009 ± 0.011 kcal/mol
DVVIDIDELKKAIEKAKPGEVLELTVKVKDKATGKEYTVRVTVTVNPDGKTVTVTVVNEETGEVIETITLPS [r1_165_TrROS_Hall]	3.94 ± 0.21 kcal/mol	> 6 kcal/mol	5.23 ± 0.22 kcal/mol
SAGGSAGGSAMPEEVKLRVVKVKVKEVEVETDENGEKRTRVKAEVVEEREITLPKEELEKLSAGGSAGGSAG [r3_121_TrROS_Hall]	2.35 ± 0.18 kcal/mol	1.76 ± 0.14 kcal/mol	1.04 ± 0.074 kcal/mol
SMTLVLENEDGSLYRIEFDEETGEIYIYNAETGEKYRITFKDGKTEEINAKDLSLEELKALPGLKIEPVPSA [r9_205_TrROS_Hall]	2.74 ± 0.061 kcal/mol	3.13 ± 0.056 kcal/mol	3.285 ± 0.023 kcal/mol
SAGGSAGSGFEEEAAAAFAASAGAMTLTVVEREPDSYTVATVTRTPGTGAPTVTVTTLSPETLAAASAGGSA [r15_156_JUSTAS]	0.904 ± 0.048 kcal/mol	0.701 ± 0.12 kcal/mol	0.425 ± 0.13 kcal/mol
SAGGMPYTLVGEKTESLGEGNTVVTKTYKPPDGTYTVETTTITTDPENGSTSTTSTTTTIPPNTPEALSAGG [r19_173_JUSTAS]	-1.12 ± 0.34 kcal/mol	-0.1 ± 0.31 kcal/mol	0.334 ± 0.25 kcal/mol
SAGGSAKKLPAEAVAKELAERLSKELGLTIKRVEVEVIDPEKGLVRVTVVYETPYGYLKREILLPVSAGGSA [r15_32_TrMRF]	1.83 ± 0.026 kcal/mol	3.31 ± 0.1 kcal/mol	3.825 ± 0.033 kcal/mol
SAGGSAGGSELPEGVEVETEPIAEIEITDEDGRKYKISIEAVKIRGPDGKEFLVISVSIEELPSAGGSAGGS [r12_544_TrROS_Hall]	3.25 ± 0.56 kcal/mol	3.81 ± 0.62 kcal/mol	4.16 ± 0.34 kcal/mol
SKEVKITIEVKEVNGKLYVVVKVEVNGKEETLVFKSLEEAKNAIAKKLGLPKEKIKIKKVEVYKVSKKDLSA [r9_909_TrROS_Hall]	0.964 ± 0.16 kcal/mol	1.07 ± 0.24 kcal/mol	0.869 ± 0.21 kcal/mol

Sequence	folding stability dG unfold [1]	folding stability dG unfold [2]	folding stability dG unfold [3]
SAGKIKIEVVKREDGYVVVKIRFEDTGEELVITVPKEDEEKVKELAEELAEKLKEEGIEVEVEVRELPPSAG [r5_815_TrROS_Hall]	2.53 ± 0.11 kcal/mol	2.86 ± 0.22 kcal/mol	3.09 ± 0.21 kcal/mol
SAGGGSTTTRTIGSKDGTVATVTVTTDPATGTTTVTISSPSPEVLEEVAAQLGLPVREVLPDGTVVLASAGG [r13_937_JUSTAS]	0.659 ± 0.023 kcal/mol	1.08 ± 0.037 kcal/mol	1.25 ± 0.015 kcal/mol
SAGSLKPGDLLYVRIYVYNPDGELLGEIDELVETEEEAERRLRELAREIEERLGRNVRVLAEIYRYPRLSAG [r5_232_TrMRF]	3.36 ± 0.088 kcal/mol	4.19 ± 0.1 kcal/mol	4.559 ± 0.024 kcal/mol
SKLVEKIAEEFGISSAMPHPDGQFMIMFPDGYMIKINIEIDEVKPKPDGKPELDLDIEIEIIPMPPPDDMSA [r9_648_TrROS]	2.05 ± 0.067 kcal/mol	2.39 ± 0.19 kcal/mol	2.74 ± 0.072 kcal/mol
SAGGSAGGSAGTITILFKDPEDAIDRIKEFAQKEGYKVKIDEIEYTPNGYVWIDIDIEPPSAGGSAGGSAGG [r11_304_TrROS]	1.06 ± 0.045 kcal/mol	1.35 ± 0.099 kcal/mol	1.49 ± 0.11 kcal/mol
SAGGMEKVKVRVFFIDEETGEPREVEVEATLEELRELIEKIPDKGRVLVKLELPDEERIVTLEELKERSAGG [r13_254_TrMRF]	1.79 ± 0.065 kcal/mol	2.76 ± 0.15 kcal/mol	3.23 ± 0.1 kcal/mol
SAGGSAGGSAGEPKLILVEVEGYPDPESNLVYVEFPNGDIATFAVDSAAPDQPVLVLVNPSAGGSAGGSAGG [r11_621_TrMRF]	0.378 ± 0.044 kcal/mol	0.28 ± 0.045 kcal/mol	-0.0185 ± 0.065 kcal/mol
SAGGHTIWIPFDSPEQAKELANEIARELNDHGLKVKVKVHPDDGWIKVKVDMRNNDKEKKIKIWFPFPSAGG [r13_641_TrROS]	0.844 ± 0.1 kcal/mol	1.78 ± 0.36 kcal/mol	2.44 ± 0.18 kcal/mol
SPKIKIVSVSRTAGGALVALLELEDRPITLYRPLALPYILASAEIPGTNEVKTILAPSSISPEEIAKLLGSA [r9_522_TrMRF]	1.59 ± 0.037 kcal/mol	1.75 ± 0.089 kcal/mol	1.75 ± 0.09 kcal/mol
SAGKMKIISVKIENNTITIEIYKDGKKIKKIEIKKNKKKIIIKIEIEPGEEIKIKIEINGKTYEITIKPSAG [r5_533_TrROS_Hall]	2.89 ± 0.26 kcal/mol	4.11 ± 0.46 kcal/mol	4.64 ± 0.23 kcal/mol
SAGGSAGGSAGGKKIKILVKIKDLKKLKGLKPGDLALIEIEVEVKPEKKTEKKYTYKKKSAGGSAGGSAGGS [r10_1233_TrROS_Hall]	0.432 ± 0.23 kcal/mol	0.693 ± 0.21 kcal/mol	0.908 ± 0.29 kcal/mol
SAGGSAGGSAGGMRRVTIWFPIPEDEEITFKLPGNGVEVEIEPDKGNGFFRITVYLPDGSAGGSAGGSAGGS [r10_1138_TrROS]	1.42 ± 0.036 kcal/mol	1.94 ± 0.098 kcal/mol	2.07 ± 0.12 kcal/mol
SAGGSAGGSAGGKIKDAEIVSVEYDPETGVLYMEVKLEDGSTYRIRFDLKTNKLTIEPVSAGGSAGGSAGGS [r10_674_TrROS_Hall]	3.29 ± 0.36 kcal/mol	4.56 ± 0.3 kcal/mol	4.91 ± 0.2 kcal/mol
SAGGSEAIKEALELAKENPGKTVEVEIKNEDGSIYKIKIEVKEGKVVKVEVEKVKKEEVLSEEEKKSAGGSA [r2_263_TrROS_Hall]	1.01 ± 0.1 kcal/mol	2.12 ± 0.1 kcal/mol	2.49 ± 0.043 kcal/mol
SAGGSAGGSELPVESIETETYEDPSTGVKTVREKYPGGYVVTKTLYVPPDGPPIELPVEVRPESAGGSAGGS [r12_111_JUSTAS]	-0.0484 ± 0.17 kcal/mol	0.425 ± 0.23 kcal/mol	0.63 ± 0.083 kcal/mol
